Measured values reported in US20210292392A1 (TSB THERAPEUTICS BEIJING, published 2021).
Like-named read-outs stand apart in the source and are kept apart here.

Columns and labels:
Assay in all cases: cell-based or functional assay
[1] = molecular target: T1, full length spike (S) protein of SARS-CoV-2 (SARS-CoV-2, UniProt P0DTC2 14-1273)
[2] = molecular target: T1, full length spike (S) protein of …; remark: listed apart in the source
[3] = molecular target: full length S protein of SARS-CoV-2 (on pseudovirus) (SARS-CoV-2, UniProt P0DTC2 14-1273)
[4] = molecular target: T1, full length spike (S) protein of …; remark: listed apart in the source

B1: P5A-1B6 (antibody, human IgG1, kappa, V domains shown)
VH: QVQLVESGGGVVQPGRSLRLSCAASGFTFSSYAMHWVRQAPGKGLEWVAVISYDGSNKYYADSVKGRFTISRDNSKNTLYLQMNSLRAEDTAVYYCARDGQAITMVQGVIGPPFDYWGQGTLVTVSS
VL: not shown
IC90, Pesudovirus neutralization [1]: 4.2 µg/mL

B2: P5A-1D2 (antibody, human IgG1, lambda, V domains shown)
VH: EVQLVESGGGLIQPGGSLRLSCAASGFIVSSNYMSWVRQAPGKGLEWVSIIYSGGSTYYADSVKGRFTISRDNSNNTLYLQMNSLRAEDTAVYYCARALQVGATSDYFDYWGQGTLVTVSS
VL: QSVLTQPPSVSGAPGQRVTISCTGSSSNIGAGYDVHWYQQLPGTAPKLLIYGNSNRPSGVPDRFSGSKSGTSASLAITGLQAEDETDYYCQSCDSSLSVVVFGGGTKLTVLG
IC50, pseudovirus neutralization [2]: 0.035 µg/mL

B3: P5A-1D2 (antibody, human IgG1, lambda, V domains shown)
VH: EVQLVESGGGLIQPGGSLRLSCAASGFIVSSNYMSWVRQAPGKGLEWVSIIYSGGSTYYADSVKGRFTISRDNSNNTLYLQMNSLRAEDTAVYYCARALQVGATSDYFDYWGQGTLVTVSS
VL: QSVLTQPPSVSGAPGQRVTISCTGSSSNIGAGYDVHWYQQLPGTAPKLLIYGNSNRPSGVPDRFSGSKSGTSASLAITGLQAEDETDYYCQSCDSSLSVVVFGGGTKLTVLG
Pseudovirus IC50 [3]: 0.0186 µg/mL
Pseudovirus IC80 [3]: 0.102 µg/mL

B4: P2C-1C8 (antibody, V domains shown)
VH: QVQLVESGGGVVQPGRSLRLSCAASGFTFRSYGMHWVRQAPGKGLEWVAVIWYDGSNKYYADSVKGRFTISRDNSKNTLYLQMNSLRAEDTAVYYCARDIEIVVVNIDYWGQGTLVTVSS
VL: not shown
Neutralizing activity (%) Mean at 0.0228624 µg/ml [4]: -7.15%
Neutralizing activity (%) Mean at 0.0685871 µg/ml [4]: 2.8%
Neutralizing activity (%) Mean at 0.2057613 µg/ml [4]: 4.92%
Neutralizing activity (%) Mean at 0.6172839 µg/ml [4]: 10.1%
Neutralizing activity (%) Mean at 1.851852 µg/ml [4]: 8.39%
Neutralizing activity (%) Mean at 5.555555 µg/ml [4]: 23.3%
Neutralizing activity (%) Mean at 16.66667 µg/ml [4]: 34.7%
Neutralizing activity (%) Mean at 50 µg/ml [4]: 59.2%

B5: P5A-3A6 (antibody, human IgG1, lambda, V domains shown)
VH: EVQLVESGGGLVQPGRSLRLSCAASGFTFDDYAMHWVRQAPGKGLEWVSGISWNSGTIGYADSVKGRFIISRDNAKNSLYLQMNSLRAEDTALYYCAGGGTMVRGVIAGGGTHPVDDYYGMDVWGQGTTVTVSS
VL: QSALTQPASVSGSPGQSITISCTGTSSDVGGYNYVSWYQQHPGKAPKLMIYDVSNRPSGVSNRFSGSKSGNTASLTISGLQAEDEADYYCSSYTSSSTVVFGGGTKLTVLG
IC50, Pesudovirus neutralization [1]: 0.234 µg/mL
IC80, Pesudovirus neutralization [1]: 1.27 µg/mL
IC90, Pesudovirus neutralization [1]: 2.77 µg/mL

B6: P4A-1H6 (antibody, human IgG1, kappa, V domains shown)
VH: QVQLVESGGGVVQPGRSLRLSCAASGFTFSSYGMHWVRQSPGKGLEWVAVISDDGSNQYYADSVKGRFTISRDNSKNTLYLQMNSLRVEDTAVYYCAKRGGYCSTTSCLLRWVYFDFWGQGTLATVSS
VL: DIQMTQSPSSLSASVGDRVTITCRASQSISSYLHWYQQKPGKAPNLLIYAASSLQSGVPSRFSGSGSGTDFTLTISSLQPEDFATYYCQQSYNTPTFGPGTKVDIKR
IC90, Pesudovirus neutralization [1]: 2.21 µg/mL

B7: P5A-2G9 (antibody, human IgG1, lambda, V domains shown)
VH: QVQLVESGGGVVQPGRSLRLSCAASGFTFSSYGMHWVRQAPGKGLEWVAVIWYDGSNKYYADSVKGRFTISRDNSKNTLYLQMNSLRAEDTAVYYCARWFHTGGYFDYWGQGTLVTVSS
VL: QPVLTQPPSSSASPGESARLTCTLPSDINVSSYNIYWYQQKPGSPPRYLLYYYSDSDKGQGSGVPSRFSGSKDASANTGILLISGLQSEDEADYYCMIWPSNALYVFGTGTKVTVLG
IC50, Pesudovirus neutralization [1]: 0.0158 µg/mL
IC80, Pesudovirus neutralization [1]: 0.147 µg/mL
IC90, Pesudovirus neutralization [1]: 0.498 µg/mL

B8: P5A-2G9 (antibody, human IgG1, lambda, V domains shown)
VH: QVQLVESGGGVVQPGRSLRLSCAASGFTFSSYGMHWVRQAPGKGLEWVAVIWYDGSNKYYADSVKGRFTISRDNSKNTLYLQMNSLRAEDTAVYYCARWFHTGGYFDYWGQGTLVTVSS
VL: QPVLTQPPSSSASPGESARLTCTLPSDINVSSYNIYWYQQKPGSPPRYLLYYYSDSDKGQGSGVPSRFSGSKDASANTGILLISGLQSEDEADYYCMIWPSNALYVFGTGTKVTVLG
Pseudovirus IC50 [3]: 0.0158 µg/mL
Pseudovirus IC80 [3]: 0.147 µg/mL

B9: P5A-1B8 (antibody, human IgG1, kappa, V domains shown)
VH: EVQLVESGGGLIQPGGSLRLSCAASGFTVSSNYMSWVRQAPGKGLEWVSVIYPGGSTFYADSVKGRFTISRDNSKNTLYLQMNSLRAEDTAVYYCARETLAFDYWGQGTLVTVSS
VL: DIQLTQSPSFLSASVGDRVTITCRASQGISSYLAWYQQKPGKAPKLLIYAASTLQSGVPSRFSGSGSGTEFTLTISSLQPEDFATYYCQQLNSYPPAFGGGTKVEIKR
IC80, Pesudovirus neutralization [1]: 0.0509 µg/mL
IC90, Pesudovirus neutralization [1]: 0.137 µg/mL

B10: P2C-1C10 (antibody, V domains shown)
VH: QVQLVQSGAEVKKPGSSVKVSCKASGGTFSSYAIIWVRQAPGQGLEWMGGIIPIFGTANYAQKFQGRVTITADESTSTAYMELSSLRSEDTAVYYCARVVTGYYFDYWGQGTLVTVSS
VL: EIVLTQSPATLSLSPGERATLSCRASQSVSSYLAWYQQKPGQAPRLLIYDASNRATGIPARFSGSGSGTDFTLTISSLEPEDFAVYYCQQRSNWPSFGQGTKLEIKR
IC50, pseudovirus neutralization [4]: 2.62 µg/mL
Neutralizing activity (%) Mean at 0.0228624 µg/ml [4]: -2.34%
Neutralizing activity (%) Mean at 0.0685871 µg/ml [4]: 7.78%
Neutralizing activity (%) Mean at 0.2057613 µg/ml [4]: 13.4%
Neutralizing activity (%) Mean at 0.6172839 µg/ml [4]: 5.92%
Neutralizing activity (%) Mean at 1.851852 µg/ml [4]: 38.5%
Neutralizing activity (%) Mean at 5.555555 µg/ml [4]: 88.9%
Neutralizing activity (%) Mean at 16.66667 µg/ml [4]: 99.9%
Neutralizing activity (%) Mean at 50 µg/ml [4]: 100%

B11: P5A-3C12 (antibody, human IgG1, kappa, V domains shown)
VH: QITLKESGPTLVKPTQTLTLTCTFSGFSLSTSGVGVGWIRQPPGKALEWLALIYWDDDKRYSPSLKSRLTITKDTSKNQVVLTMTNMDPVDTATYYCAHSLFLTVGYSSSWSPFDYWGQGTLVTVSS
VL: not shown
IC90, Pesudovirus neutralization [1]: 0.955 µg/mL

B12: P2C-1D5 (antibody, V domains shown)
VH: not shown
VL: SYVLTQPPSVSVAPGKTARITCGGNNIGSKSVHWYQQKPGQAPVLVIYYDSDRPSGIPERFSGSNSGNTATLTISRVEAGDEADYYCQVWDSSSDHHVFGTGTKVTVLG
IC50, pseudovirus neutralization [4]: 10.7 µg/mL
Neutralizing activity (%) Mean at 0.0228624 µg/ml [4]: 4.24%
Neutralizing activity (%) Mean at 0.0685871 µg/ml [4]: 5.65%
Neutralizing activity (%) Mean at 0.2057613 µg/ml [4]: 8.66%
Neutralizing activity (%) Mean at 0.6172839 µg/ml [4]: 12.4%
Neutralizing activity (%) Mean at 1.851852 µg/ml [4]: 16.1%
Neutralizing activity (%) Mean at 5.555555 µg/ml [4]: 33.6%
Neutralizing activity (%) Mean at 16.66667 µg/ml [4]: 64.9%
Neutralizing activity (%) Mean at 50 µg/ml [4]: 90.2%

B13: P5A-2G7 (antibody, human IgG1, lambda, V domains shown)
VH: QVQLQESGPGLVKPSETLSLTCTVSGDSVSSGSYYWSWIRQPPGKGLEWIGYIYYSGSTNYNPSLKSRVTISVDTSKNQFSLKLSSVTAADTAVYYCARERCYYGSGRAPRCVWFDPWGQGTLVTVSS
VL: QSALTQPASVSGSPGQSITISCTGTSSDVGGYNYVSWYQQHPGKAPKLMIYDVSNRPSGVSNRFSGSKSGNTASLTISGLQAEDEADYYCSSYTSSSTLVVFGGGTKLTVLG
IC50, pseudovirus neutralization [2]: 0.016 µg/mL

B14: P5A-1D10 (antibody, human IgG1, lambda, V domains shown)
VH: QVQLVESGGGLVKPGGSLRLSCAASQFTFSDYSMTWIRQAPGKGLEWVSYISQSGSTIYYADSVKGRFTISRDNAKNSLYLQMNSLRAEDTAVYYCARGVSPSYVWGSYRSLYHFDYWGQGTLVTVSS
VL: QSALTQPASVSGSPGQSITISCTGTSSDVGGYNYVSWYQQHPGKAPKLMIYDVSNRPSGVSNRFSASKSGNTASLTISGLQAEDEADYYCSSFTSSTTVVVFGGGTKLTVLG
IC50, Pesudovirus neutralization [1]: 5.72 µg/mL
IC80, Pesudovirus neutralization [1]: 28.9 µg/mL
IC90, Pesudovirus neutralization [1]: 43.8 µg/mL

B15: P5A-2G7 (antibody, human IgG1, lambda, V domains shown)
VH: QVQLQESGPGLVKPSETLSLTCTVSGDSVSSGSYYWSWIRQPPGKGLEWIGYIYYSGSTNYNPSLKSRVTISVDTSKNQFSLKLSSVTAADTAVYYCARERCYYGSGRAPRCVWFDPWGQGTLVTVSS
VL: QSALTQPASVSGSPGQSITISCTGTSSDVGGYNYVSWYQQHPGKAPKLMIYDVSNRPSGVSNRFSGSKSGNTASLTISGLQAEDEADYYCSSYTSSSTLVVFGGGTKLTVLG
Pseudovirus IC50 [3]: 0.0044 µg/mL
Pseudovirus IC80 [3]: 0.0287 µg/mL

B16: P5A-3C8 (antibody, human IgG1, kappa, V domains shown)
VH: EVQLVESGGGLIQPGGSLRLSCAASGFTVSSNYMSWVRQAPGKGLEWVSFIYSGGSTYYADSVKGRFTISRDNSKNTLYLQMNSLRAEDTAVYYCARDLQEHGMDVWGQGTTVTVSS
VL: DIQLTQSPSSLSASVGDRVTITCRASQGISSYLAWYQQKPGKAPKLLIYAASTLQSGVPSRFSGSGSGTDFTLTISSLQPEDFATYYCQHLNSYPPGYTFGQGTKLEIKR
IC50, pseudovirus neutralization [2]: 0.024 µg/mL

B17: P22A-1D1 (antibody, human IgG1, kappa, V domains shown)
VH: EVQLVESGGGLIQPGGSLRLSCAASGFTVSSNYMSWVRQAPGKGLEWVSVIYSGGSTYYADSVKGRFTISRDNSKNTLYLQMNSLRAEDTAVYYCARDRDYYGMDVWGQGTTVTVSS
VL: DIQLTQSPSFLSASVGDRVTITCRASQGISSYLAWYQQKPGKAPKLLIYAASTLQSGVPSRFSGSGSGTEFTLTISSLQPEDFATYYCLHLNSYRTFGLGTKVEIKR
IC90, Pesudovirus neutralization [1]: 0.399 µg/mL

B18: P5A-1D1 (antibody, V domains shown)
VH: EVQLVESGGGLIQPGGSLRLSCAASGLTVSSNYMSWVRQAPGKGLEWVSVIYSGGSTYYADSVKGRFTISRDNSKNTLYLQMNSLRAEDTAVYYCARDLYYYGMDVWGQGTTVTVST
VL: DIQLTQSPSFLSASVGDRVTITCRASQGISSYLAWYQQKPGKAPKLLIYAASTLQSGVPSRFSGSGSGTDFTLTISSLQPEDFATYYCQQLNSYPTFGQGTRLEIKR
IC90, Pesudovirus neutralization [1]: 0.232 µg/mL

B19: P5A-3A1 (antibody, V domains shown)
VH: EVQLVESGGGLIQPGGSLRLSCAASGFTVSSNYMSWVRQAPGKGLEWVSVIYSGGSTYYADSVKGRFTISRDNSKNTLYLQMNSLRAEDTAVYYCARDYGDFYFDYWGQGTLVTVSS
VL: not shown
IC90, Pesudovirus neutralization [1]: 7.2 µg/mL
